We go through ten molecules from patent publication US20230242611A1 (YEDA RESEARCH AND DEVELOPMENT, published 2023).

The target in experiment [1] is MAGE-A1278-286 peptide presented on HLA-A2 on cells (peptide-loaded T2 cells; 721.211-A2 MAGE-A1+ cells) (human). As to the kind of experiment: cell-based or functional assay.
In experiment [2] the target is T1, MAGE-A1 peptide on HLA-A*02:01 (human).
T1 peptide: KVLEYVIKV
As to the kind of experiment: multimer staining.

Experiment [3] addresses T2, MUC1 peptide on HLA-A*02:01 (human).
T2 peptide: LLLTVLTVV
Briefly: killing.

The target of experiment [4] is T3, MAGE-A1 278-286 with alanine at position 8 peptide on HLA-A*02:01 (human).
T3 peptide: KVLEYVIAV
Briefly: cytokine release.

The target in experiment [5] is T4, MAGE-A1 278-286 with alanine at position 1 peptide on HLA-A*02:01 (human).
T4 peptide: AVLEYVIKV
Briefly: cytokine release.

Experiment [6] has as its target T5, MAGE-A1 278-286 with alanine at position 4 peptide on HLA-A*02:01 (human).
T5 peptide: KVLAYVIKV
As to the kind of experiment: cytokine release.

Experiment [7] deals with T6, MAGE-A1 278-286 with alanine at position 6 peptide on HLA-A*02:01 (human).
T6 peptide: KVLEYAIKV
Briefly: cytokine release.

For experiment [8], the target named is T7, MAGE-A1 278-286 with alanine at position 5 peptide on HLA-A*02:01 (human).
T7 peptide: KVLEAVIKV
As to the kind of experiment: cytokine release.

The target in experiment [9] is T8, MAGE-A1 278-286 with alanine at position 9 peptide on HLA-A*02:01 (human).
T8 peptide: KVLEYVIKA
As to the kind of experiment: cytokine release.

In experiment [10] the target is T9, MAGE-A1 278-286 with alanine at position 3 peptide on HLA-A*02:01 (human).
T9 peptide: KVAEYVIKV
As to the kind of experiment: cytokine release.

Experiment [11] concerns the target T10, MAGE-A1 278-286 with alanine at position 7 peptide on HLA-A*02:01 (human).
T10 peptide: KVLEYVAKV
As to the kind of experiment: cytokine release.

For experiment [12], the target named is T11, MAGE-A1 278-286 with alanine at position 2 peptide on HLA-A*02:01 (human).
T11 peptide: KALEYVIKV
Briefly: cytokine release.

B1: hT27 TCR comprising W55L+Y56F mutations in the alpha chain (m9) (TCR, V domains shown)
V domain 1: EDVEQSLFLSVREGDSSVINCTYTDSSSTYLYLFKQEPGAGLQLLTYIFSNMDMKQDQRLTVLLNKKDKHLSLRIADTQTGDSAIYFCAGSGGGTDKLIFGTGTRLQVFP
V domain 2: AVVSQHPSWVICKSGTSVKIECRSLDFQATTMFWYRQFPKQSLMLMATSNEGSKATYEQGVEKDKFLINHASLTLSTLTVTSAHPEDSSFYICSAREPGQGPYEQYFGPGTRLTVTE
Consider B1, for which, in experiment [1], the “% IFNγ+ cells after co-culture with 721.211-A2 cells” value (from here on “% IFNγ+ cells after co-culture”) was 5.4 % IFNγ+; the “EC50 of IFNγ production (peptide concentration), T2 cells loaded with MAGE-A1 peptide” value (“EC50 of IFNγ production … with MAGE-A1 peptide” for short) stood at 0.275 pM; the “EC50 of IFNγ production against WT hT27” value was ~4 orders of magnitude lower than WT hT27 TCR; the “EC50 of IL2 production against WT hT27” value is ~3 orders of magnitude lower than WT hT27 TCR.

B2: hT27 TCR with beta chain S32T and S109N mutations (TCR, V domains shown)
Valpha: GEDVEQSLFLSVREGDSSVINCTYTDSSSTYLYWYKQEPGAGLQLLTYIFSNMDMKQDQRLTVLLNKKDKHLSLRIADTQTGDSAIYFCAGSGGGTDKLIFGTGTRLQVFP
Vbeta: GAVVSQHPSWVICKSGTTVKIECRSLDFQATTMFWYRQFPKQSLMLMATSNEGSKATYEQGVEKDKFLINHASLTLSTLTVTSAHPEDSSFYICNAREPGQGPYEQYFGPGTRLTVT
As for B2, in experiment [2], the binding result was “recognises”.

B3: hT27 TCR (TCR, V domains shown)
Valpha: GEDVEQSLFLSVREGDSSVINCTYTDSSSTYLYWYKQEPGAGLQLLTYIFSNMDMKQDQRLTVLLNKKDKHLSLRIADTQTGDSAIYFCAGSGGGTDKLIFGTGTRLQVFP
Vbeta: GAVVSQHPSWVICKSGTSVKIECRSLDFQATTMFWYRQFPKQSLMLMATSNEGSKATYEQGVEKDKFLINHASLTLSTLTVTSAHPEDSSFYICSAREPGQGPYEQYFGPGTRLTVT
As for B3, the binding result is given as “no recognition” in experiment [3]; “no recognition” in [4]; “recognises” in experiment [5]; “no recognition” in [6]; “no recognition” in experiment [7]; “no recognition” in experiment [8]. Further, the binding result in experiment [9] is recorded as “recognises”; in [10], “no recognition”.

B4: hT27 TCR m7 (alpha chain G125A) (TCR, V domains shown)
Valpha: GEDVEQSLFLSVREGDSSVINCTYTDSSSTYLYWYKQEPGAGLQLLTYIFSNMDMKQDQRLTVLLNKKDKHLSLRIADTQTGDSAIYFCAGSGGGTDKLIFGTATRLQVFP
Vbeta: GAVVSQHPSWVICKSGTSVKIECRSLDFQATTMFWYRQFPKQSLMLMATSNEGSKATYEQGVEKDKFLINHASLTLSTLTVTSAHPEDSSFYICSAREPGQGPYEQYFGPGTRLTVT
As for B4, the binding result in [2] is “recognises”.

B5: hT27 TCR m3 (beta chain T63I) (TCR, V domains shown)
Valpha: GEDVEQSLFLSVREGDSSVINCTYTDSSSTYLYWYKQEPGAGLQLLTYIFSNMDMKQDQRLTVLLNKKDKHLSLRIADTQTGDSAIYFCAGSGGGTDKLIFGTGTRLQVFP
Vbeta: GAVVSQHPSWVICKSGTSVKIECRSLDFQATTMFWYRQFPKQSLMLMAISNEGSKATYEQGVEKDKFLINHASLTLSTLTVTSAHPEDSSFYICSAREPGQGPYEQYFGPGTRLTVT
As for B5, the binding result in experiment [3] is “no recognition”; in experiment [2], “recognises”; in [4], “recognises”; in experiment [5], “recognises”; in experiment [7], “recognises”; in [11], “recognises”. The binding result in experiment [12] and in experiment [9] was “recognises” each time.

B6: hT27 TCR m8 (alpha chain G125V) (TCR, V domains shown)
Valpha: GEDVEQSLFLSVREGDSSVINCTYTDSSSTYLYWYKQEPGAGLQLLTYIFSNMDMKQDQRLTVLLNKKDKHLSLRIADTQTGDSAIYFCAGSGGGTDKLIFGTVTRLQVFP
Vbeta: GAVVSQHPSWVICKSGTSVKIECRSLDFQATTMFWYRQFPKQSLMLMATSNEGSKATYEQGVEKDKFLINHASLTLSTLTVTSAHPEDSSFYICSAREPGQGPYEQYFGPGTRLTVT
As for B6, the binding result in experiment [3] is “no recognition”; in experiment [2] it was “recognises”; in experiment [4], “recognises”; in experiment [5], “recognises”; in experiment [7] it was “recognises”; in [11] it was “recognises”. The binding result in experiment [12] and in experiment [9] was “recognises” in each case.

B7: wild type (WT) hT27 TCR, MAGE-A1 specific (TCR)
TCR alpha: RGEDVEQSLFLSVREGDSSVINCTYTDSSSTYLYWYKQEPGAGLQLLTYIFSNMDMKQDQRLTVLLNKKDKHLSLRIADTQTGDSAIYFCAGSGGGTDKLIFGTGTRLQVFPNIQNPEPAVYQLKDPRSQDSTLCLFTDFDSQINVPKTMESGTFITDKTVLDMKAMDSKSNGAIAWSNQTSFTCQDIFKETNATYPSSDVPCDATLTEKSFETDMNLNFQNLSVMGLRILLLKVAGFNLLMTLRLWSS
TCR beta: AVVSQHPSWVICKSGTSVKIECRSLDFQATTMFWYRQFPKQSLMLMATSNEGSKATYEQGVEKDKFLINHASLTLSTLTVTSAHPEDSSFYICSAREPGQGPYEQYFGPGTRLTVTEDLRNVTPPKVSLFEPSKAEIANKQKATLVCLARGFFPDHVELSWWVNGKEVHSGVSTDPQAYKESNYSYCLSSRLRVSATFWHNPRNHFRCQVQFHGLSEEDKWPEGSPKPVTQNISAEAWGRADCGITSASYHQGVLSATILYEILLGKATLYAVLVSGLVLMAMVKKKNS
As to B7, in [1], the “% IFNγ+ cells after co-culture” value was found to be 3.3 % IFNγ+ and the “EC50 of IFNγ production … with MAGE-A1 peptide” value is 3540 pM.

B8: hT27 TCR comprising S109N mutation in the beta chain (m2) (TCR, V domains shown)
V domain 1: RGEDVEQSLFLSVREGDSSVINCTYTDSSSTYLYWYKQEPGAGLQLLTYIFSNMDMKQDQRLTVLLNKKDKHLSLRIADTQTGDSAIYFCAGSGGGTDKLIFGTGTRLQVFP
V domain 2: AVVSQHPSWVICKSGTSVKIECRSLDFQATTMFWYRQFPKQSLMLMATSNEGSKATYEQGVEKDKFLINHASLTLSTLTVTSAHPEDSSFYICNAREPGQGPYEQYFGPGTRLTVTE
On to B8, for which, in experiment [1], the “% IFNγ+ cells after co-culture” value turned out to be 49.7 % IFNγ+, the “EC50 of IFNγ production against WT hT27” value was ~4 orders of magnitude lower than WT hT27 TCR and the “EC50 of IL2 production against WT hT27” value was ~3 orders of magnitude lower than WT hT27 TCR.

B9: hT27 TCR comprising G125V mutation in the alpha chain (m8) (TCR)
TCR alpha: RGEDVEQSLFLSVREGDSSVINCTYTDSSSTYLYWYKQEPGAGLQLLTYIFSNMDMKQDQRLTVLLNKKDKHLSLRIADTQTGDSAIYFCAGSGGGTDKLIFGTVTRLQVFPNIQNPEPAVYQLKDPRSQDSTLCLFTDFDSQINVPKTMESGTFITDKTVLDMKAMDSKSNGAIAWSNQTSFTCQDIFKETNATYPSSDVPCDATLTEKSFETDMNLNFQNLSVMGLRILLLKVAGFNLLMTLRLWSS
TCR beta: AVVSQHPSWVICKSGTSVKIECRSLDFQATTMFWYRQFPKQSLMLMATSNEGSKATYEQGVEKDKFLINHASLTLSTLTVTSAHPEDSSFYICSAREPGQGPYEQYFGPGTRLTVTEDLRNVTPPKVSLFEPSKAEIANKQKATLVCLARGFFPDHVELSWWVNGKEVHSGVSTDPQAYKESNYSYCLSSRLRVSATFWHNPRNHFRCQVQFHGLSEEDKWPEGSPKPVTQNISAEAWGRADCGITSASYHQGVLSATILYEILLGKATLYAVLVSGLVLMAMVKKKNS
For the molecule B9, in experiment [1], the “% IFNγ+ cells after co-culture” value turned out to be 3.8 % IFNγ+; the “EC50 of IFNγ production … with MAGE-A1 peptide” value was 0.982 pM; the “EC50 of IFNγ production against WT hT27” value was ~4 orders of magnitude lower than WT hT27 TCR; the “EC50 of IL2 production against WT hT27” value is ~3 orders of magnitude lower than WT hT27 TCR.

B10: hT27 TCR comprising T63I mutation in the beta chain (m3) (TCR, V domains shown)
V domain 1: RGEDVEQSLFLSVREGDSSVINCTYTDSSSTYLYWYKQEPGAGLQLLTYIFSNMDMKQDQRLTVLLNKKDKHLSLRIADTQTGDSAIYFCAGSGGGTDKLIFGTGTRLQVFP
V domain 2: AVVSQHPSWVICKSGTSVKIECRSLDFQATTMFWYRQFPKQSLMLMAISNEGSKATYEQGVEKDKFLINHASLTLSTLTVTSAHPEDSSFYICSAREPGQGPYEQYFGPGTRLTVTE
As for B10, in experiment [1], the “% IFNγ+ cells after co-culture” value turned out to be 6.9 % IFNγ+; the “EC50 of IFNγ production … with MAGE-A1 peptide” value came to 0.352 pM; the “EC50 of IFNγ production against WT hT27” value was ~4 orders of magnitude lower than WT hT27 TCR; the “EC50 of IL2 production against WT hT27” value was ~3 orders of magnitude lower than WT hT27 TCR.
